In the assay the target is T1, recombinant, soluble extracellular b1b2 domain of human NRP1, wild type (residues 274-584) (human, UniProt O14786 274-584).
T1 sequence: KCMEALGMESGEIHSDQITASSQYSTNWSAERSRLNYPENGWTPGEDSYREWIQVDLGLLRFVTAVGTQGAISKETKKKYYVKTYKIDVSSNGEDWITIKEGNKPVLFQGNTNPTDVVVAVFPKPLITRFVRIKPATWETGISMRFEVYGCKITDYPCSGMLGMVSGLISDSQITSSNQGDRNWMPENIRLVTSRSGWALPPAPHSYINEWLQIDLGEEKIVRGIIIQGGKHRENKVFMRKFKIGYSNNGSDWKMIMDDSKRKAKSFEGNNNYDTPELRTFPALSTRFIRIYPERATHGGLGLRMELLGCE

*: point of attachment. Biotin = O=C1N[C@H]2[C@H](CS[C@H]2CCCCC(=O)*)N1; Ahx = NCCCCCC(=O)O

Turning to {Biotin-Ahx}-RPARPAR-OH (also: on silver nanoparticles) [biotin-Ahx-RPARPAR-OH, prototypic NRP1-binding CendR peptide, on silver nanoparticles (AgNP-CendR)], the binding result is given as “binds”.
